Source: patent publication US20260098059A1 (ENDOMET BIOSCIENCES, published 2026)
Values joined by “and” are separate entries in the source; they are usually repeats but may differ in a detail not shown here. Equal values may be shown once. [ ]: non-standard residue; d: D form. Trp(1-Me) = Cn1cc(C[C@H](N)C(=O)O)c2ccccc21; αMeW = C[C@](N)(Cc1c[nH]c2ccccc12)C(=O)O; Trp(3-Me) = 3-methyltryptophan; αMeL = CC(C)C[C@](C)(N)C(=O)O

T1: β-catenin (UniProt P35222 134-665, limits assumed, biotinylated in the SPR and plate assays)
T1 sequence (looked up): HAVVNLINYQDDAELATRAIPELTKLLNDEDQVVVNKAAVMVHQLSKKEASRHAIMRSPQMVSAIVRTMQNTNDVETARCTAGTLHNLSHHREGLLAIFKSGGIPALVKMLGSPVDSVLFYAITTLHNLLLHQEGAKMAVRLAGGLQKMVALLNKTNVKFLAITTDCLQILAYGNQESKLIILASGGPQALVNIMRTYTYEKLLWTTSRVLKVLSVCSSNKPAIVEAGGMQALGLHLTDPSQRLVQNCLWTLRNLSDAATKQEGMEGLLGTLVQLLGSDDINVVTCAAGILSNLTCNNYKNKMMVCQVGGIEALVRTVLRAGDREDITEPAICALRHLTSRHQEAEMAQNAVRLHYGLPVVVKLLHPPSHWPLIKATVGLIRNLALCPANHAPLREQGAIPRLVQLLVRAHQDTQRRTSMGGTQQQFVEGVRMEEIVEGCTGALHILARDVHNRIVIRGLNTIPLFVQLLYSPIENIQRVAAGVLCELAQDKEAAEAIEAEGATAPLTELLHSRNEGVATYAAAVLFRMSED


The binders below were run against T1, β-catenin (assay: cell-based or functional assay).

Wnt Reporter EC50	Binder
≤ 7.5 µM	KMWFLISFWD (HELM PEPTIDE1{K.M.W.F.L.I.S.F.W.D}$PEPTIDE1,PEPTIDE1,1:R3-10:R3$$$V2.0; SMILES CC[C@H](C)[C@@H]1NC(=O)[C@H](CC(C)C)NC(=O)[C@H](Cc2ccccc2)NC(=O)[C@H](Cc2c[nH]c3ccccc23)NC(=O)[C@H](CCSC)NC(=O)[C@@H](N)CCCCNC(=O)C[C@@H](C(=O)O)NC(=O)[C@H](Cc2c[nH]c3ccccc23)NC(=O)[C@H](Cc2ccccc2)NC(=O)[C@H](CO)NC1=O) [SEQ ID NO: 171]
> 15 µM and ≤ 22.5 µM	H-KWILICFWG-OH [SEQ ID NO: 117]
≤ 7.5 µM	KWFLICFWD (HELM PEPTIDE1{K.W.F.L.I.C.F.W.D}$PEPTIDE1,PEPTIDE1,1:R3-9:R3$$$V2.0; SMILES CC[C@H](C)[C@@H]1NC(=O)[C@H](CC(C)C)NC(=O)[C@H](Cc2ccccc2)NC(=O)[C@H](Cc2c[nH]c3ccccc23)NC(=O)[C@@H](N)CCCCNC(=O)C[C@@H](C(=O)O)NC(=O)[C@H](Cc2c[nH]c3ccccc23)NC(=O)[C@H](Cc2ccccc2)NC(=O)[C@H](CS)NC1=O) [SEQ ID NO: 172]
≤ 7.5 µM	H-MWILISYWG-OH [SEQ ID NO: 152]
> 7.5 µM and ≤ 15 µM	KWALISAWD (HELM PEPTIDE1{K.W.[Cha].L.I.S.A.W.D}$PEPTIDE1,PEPTIDE1,1:R3-9:R3$$$V2.0; SMILES CC[C@H](C)[C@@H]1NC(=O)[C@H](CC(C)C)NC(=O)[C@H](CC2CCCCC2)NC(=O)[C@H](Cc2c[nH]c3ccccc23)NC(=O)[C@@H](N)CCCCNC(=O)C[C@@H](C(=O)O)NC(=O)[C@H](Cc2c[nH]c3ccccc23)NC(=O)[C@H](C)NC(=O)[C@H](CO)NC1=O) [SEQ ID NO: 203]
≤ 7.5 µM	KWFLICAWD (HELM PEPTIDE1{K.W.F.L.I.C.A.W.D}$PEPTIDE1,PEPTIDE1,1:R3-9:R3$$$V2.0; SMILES CC[C@H](C)[C@@H]1NC(=O)[C@H](CC(C)C)NC(=O)[C@H](Cc2ccccc2)NC(=O)[C@H](Cc2c[nH]c3ccccc23)NC(=O)[C@@H](N)CCCCNC(=O)C[C@@H](C(=O)O)NC(=O)[C@H](Cc2c[nH]c3ccccc23)NC(=O)[C@H](C)NC(=O)[C@H](CS)NC1=O) [SEQ ID NO: 168]
> 7.5 µM and ≤ 15 µM	KWFLISAWE (HELM PEPTIDE1{[ac].K.W.F.L.I.S.A.W.E}$PEPTIDE1,PEPTIDE1,2:R3-10:R3$$$V2.0; SMILES CC[C@H](C)[C@@H]1NC(=O)[C@H](CC(C)C)NC(=O)[C@H](Cc2ccccc2)NC(=O)[C@H](Cc2c[nH]c3ccccc23)NC(=O)[C@@H](NC(C)=O)CCCCNC(=O)CC[C@@H](C(=O)O)NC(=O)[C@H](Cc2c[nH]c3ccccc23)NC(=O)[C@H](C)NC(=O)[C@H](CO)NC1=O) [SEQ ID NO: 187]
≤ 7.5 µM	H-HWILICFWG-OH [SEQ ID NO: 118]

Second part, the binder before the results:

Binder	Wnt Reporter EC50
KWFLISAWE (HELM PEPTIDE1{K.W.F.L.I.S.A.W.E}$PEPTIDE1,PEPTIDE1,1:R3-9:R3$$$V2.0; SMILES CC[C@H](C)[C@@H]1NC(=O)[C@H](CC(C)C)NC(=O)[C@H](Cc2ccccc2)NC(=O)[C@H](Cc2c[nH]c3ccccc23)NC(=O)[C@@H](N)CCCCNC(=O)CC[C@@H](C(=O)O)NC(=O)[C@H](Cc2c[nH]c3ccccc23)NC(=O)[C@H](C)NC(=O)[C@H](CO)NC1=O) [SEQ ID NO: 183]	≤ 7.5 µM
H-MWFLIQFWG-OH [SEQ ID NO: 143]	> 7.5 µM and ≤ 15 µM
H-MWI[αMeL]ICFWG-OH [SEQ ID NO: 130]	> 22.5 µM and ≤ 30 µM
H-MWFLIHFWG-OH [SEQ ID NO: 163]	≤ 7.5 µM
H-MWFLICHWG-OH [SEQ ID NO: 145]	> 7.5 µM and ≤ 15 µM
KWFLISAWD (HELM PEPTIDE1{K.W.F.L.I.S.A.W.D}$PEPTIDE1,PEPTIDE1,1:R3-9:R3$$$V2.0; SMILES CC[C@H](C)[C@@H]1NC(=O)[C@H](CC(C)C)NC(=O)[C@H](Cc2ccccc2)NC(=O)[C@H](Cc2c[nH]c3ccccc23)NC(=O)[C@@H](N)CCCCNC(=O)C[C@@H](C(=O)O)NC(=O)[C@H](Cc2c[nH]c3ccccc23)NC(=O)[C@H](C)NC(=O)[C@H](CO)NC1=O) [SEQ ID NO: 202]	> 22.5 µM and ≤ 30 µM
KWILICFWD (HELM PEPTIDE1{K.W.I.L.I.C.F.W.D}$PEPTIDE1,PEPTIDE1,1:R3-9:R3$$$V2.0; SMILES CC[C@H](C)[C@@H]1NC(=O)[C@H](CC(C)C)NC(=O)[C@H]([C@@H](C)CC)NC(=O)[C@H](Cc2c[nH]c3ccccc23)NC(=O)[C@@H](N)CCCCNC(=O)C[C@@H](C(=O)O)NC(=O)[C@H](Cc2c[nH]c3ccccc23)NC(=O)[C@H](Cc2ccccc2)NC(=O)[C@H](CS)NC1=O) [SEQ ID NO: 120]	≤ 7.5 µM
VWFLICFWG (HELM PEPTIDE1{[Nva].W.F.L.I.C.F.W.G}$$$$V2.0; SMILES CCC[C@H](N)C(=O)N[C@@H](Cc1c[nH]c2ccccc12)C(=O)N[C@@H](Cc1ccccc1)C(=O)N[C@@H](CC(C)C)C(=O)N[C@H](C(=O)N[C@@H](CS)C(=O)N[C@@H](Cc1ccccc1)C(=O)N[C@@H](Cc1c[nH]c2ccccc12)C(=O)NCC(=O)O)[C@@H](C)CC) [SEQ ID NO: 141]	> 7.5 µM and ≤ 15 µM
H-MWFLICH[Trp(3-Me)]G-OH [SEQ ID NO: 135]	> 7.5 µM and ≤ 15 µM
KWFLICAWD (HELM PEPTIDE1{[ac].K.W.F.L.I.C.A.W.D}$PEPTIDE1,PEPTIDE1,2:R3-10:R3$$$V2.0; SMILES CC[C@H](C)[C@@H]1NC(=O)[C@H](CC(C)C)NC(=O)[C@H](Cc2ccccc2)NC(=O)[C@H](Cc2c[nH]c3ccccc23)NC(=O)[C@@H](NC(C)=O)CCCCNC(=O)C[C@@H](C(=O)O)NC(=O)[C@H](Cc2c[nH]c3ccccc23)NC(=O)[C@H](C)NC(=O)[C@H](CS)NC1=O) [SEQ ID NO: 169]	≤ 7.5 µM
H-RWILICFWG-OH [SEQ ID NO: 119]	> 7.5 µM and ≤ 15 µM
KWFLIAFWE (HELM PEPTIDE1{[ac].K.W.F.L.I.A.F.W.E}$PEPTIDE1,PEPTIDE1,2:R3-10:R3$$$V2.0; SMILES CC[C@H](C)[C@@H]1NC(=O)[C@H](CC(C)C)NC(=O)[C@H](Cc2ccccc2)NC(=O)[C@H](Cc2c[nH]c3ccccc23)NC(=O)[C@@H](NC(C)=O)CCCCNC(=O)CC[C@@H](C(=O)O)NC(=O)[C@H](Cc2c[nH]c3ccccc23)NC(=O)[C@H](Cc2ccccc2)NC(=O)[C@H](C)NC1=O) [SEQ ID NO: 200]	≤ 7.5 µM
H-M[αMeW]ILISFWG-OH [SEQ ID NO: 134]	> 30 µM
H-MWFLICH[Trp(1-Me)]G-OH [SEQ ID NO: 140]	> 15 µM and ≤ 22.5 µM
KWFLICFWE (HELM PEPTIDE1{K.W.F.L.I.C.F.W.E}$PEPTIDE1,PEPTIDE1,1:R3-9:R3$$$V2.0; SMILES CC[C@H](C)[C@@H]1NC(=O)[C@H](CC(C)C)NC(=O)[C@H](Cc2ccccc2)NC(=O)[C@H](Cc2c[nH]c3ccccc23)NC(=O)[C@@H](N)CCCCNC(=O)CC[C@@H](C(=O)O)NC(=O)[C@H](Cc2c[nH]c3ccccc23)NC(=O)[C@H](Cc2ccccc2)NC(=O)[C@H](CS)NC1=O) [SEQ ID NO: 179]	≤ 7.5 µM
MWFLICFWD (HELM PEPTIDE1{[O=C(CCCN[*:1])[*:2]].M.W.F.L.I.C.F.W.D}$PEPTIDE1,PEPTIDE1,1:R1-10:R3$$$V2.0; SMILES CC[C@H](C)[C@@H]1NC(=O)[C@H](CC(C)C)NC(=O)[C@H](Cc2ccccc2)NC(=O)[C@H](Cc2c[nH]c3ccccc23)NC(=O)[C@H](CCSC)NC(=O)CCCNC(=O)C[C@@H](C(=O)O)NC(=O)[C@H](Cc2c[nH]c3ccccc23)NC(=O)[C@H](Cc2ccccc2)NC(=O)[C@H](CS)NC1=O) [SEQ ID NO: 147]	> 30 µM
KWFLIAFWE (HELM PEPTIDE1{K.W.F.L.I.A.F.W.E}$PEPTIDE1,PEPTIDE1,1:R3-9:R3$$$V2.0; SMILES CC[C@H](C)[C@@H]1NC(=O)[C@H](CC(C)C)NC(=O)[C@H](Cc2ccccc2)NC(=O)[C@H](Cc2c[nH]c3ccccc23)NC(=O)[C@@H](N)CCCCNC(=O)CC[C@@H](C(=O)O)NC(=O)[C@H](Cc2c[nH]c3ccccc23)NC(=O)[C@H](Cc2ccccc2)NC(=O)[C@H](C)NC1=O) [SEQ ID NO: 201]	> 22.5 µM and ≤ 30 µM
